In the supplement of paper PMC9170038:

System: MS2 coat protein
Test: apparent KD of MS2 coat protein; higher = weaker reporter binding
Details: Eterna round: R107
Description: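 RNA-MaP round R107: designed RNA switches with theophylline, tryptophan, arginine or FMN aptamers are transcribed on-chip within common flanks. They are titrated with SNAP-549-labelled MS2 coat protein in RNA-MaP buffer (100 mM Tris pH 7.5, 80 mM KCl, 4 mM MgCl2), without ligand or with the indicated ligand. Median apparent KD per design.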

[1] = input ligand: theophylline 20 uM
[2] = input ligand: tryptophan 2.4 mM
[3] = input ligand: theophylline 2 mM

Sequence | apparent KD of MS2 coat protein (input ligand: arginine 13.2 mM) [nM] | apparent KD of MS2 coat protein [1] [nM] | apparent KD of MS2 coat protein [2] [nM] | apparent KD of MS2 coat protein (input ligand: none) [nM] | apparent KD of MS2 coat protein [3] [nM]
GAUGAACUAUUUGAUACCAGACUACAUGAGGAUCACCCAUGUGCGCGUCGUCCUCUGCCAGUCCCUUGGCAGCAAAUAGUUUAUC [XTheo B #9] | 69.8 | 140 | 85.2 | – | –
AGCAGCUGGUUUCUUUUCUUUACAGCUGCACGAGGACCGGUACGGCCGCCACUCGAGGACAUGAGGAUCACCCAUGUGCCGGUCG | 34.1 | 40.6 | 22.7 | 25.6 | 49.7
AUGACUCACAAAGAAGAUAAAAUGGGUGAACGAGGACCGGUACGGCCGCCACUCGGACAUGAGGAUCACCCAUGUCCAUGUGCAA [#24 Exclusion Tryptophan A] | 16 | 24.3 | – | – | 21
GGACUAACCAGAAGGAGCGGCACGCAGAAACUGCAAAAUCCUCCGCACGAGGAUCACCCGUGUCAGGUAGGUCGCUGGUUAGUCG [ArgBX 28] | 36.7 | 39.8 | 33.8 | 32.2 | 37.8
GUUGAGACCUCGGCCGCCACUCGCCAUGAGGAUCUCCCAUGUAACAUGAGGAUCACCCAUGUACUGAGGACCGGGAGGUCCUAGU [Same State Tryptophan B GF 15] | 17.2 | 34 | 65.6 | 17.4 | 33.5
GCGGUCCACUUGGAUACCAGCAGAUUAAUAAACAUGAGGAUCACCCAUGUAAGCGCCUUGUGCCCUUGGCAGCCAGGGUGGUCAG [theeternabot_sameState_MS2_Theo_B_50] | 55.5 | 136 | 88.4 | – | –
UGUACAUGAGGAUCACCCAUGUUACGCGAUACCAGACAUGAGAGUGUCCCUUGGCAGCGUGGAGCUGAUACGGCGGGAAGCCGGA [#10 SameState-TheophyllineA] | 16.1 | 50.2 | 45.9 | – | –
AGUUUGGACUCGGCCGCCACUCGUGAUGCUUUGGCACAUGAGGAUCACCCAUGUGGUCGGCCUUAGAGGACCGGGAGUACCAGCC [Edesceso] | 82.5 | 297 | – | – | 342
CUAUCCUUGCCGGAUGAAGGACACUGAGAAGGAGCGCGGUAAUCCGCAGGUAGGUCGCUCAGGAGUACAUGAGGAUCACCCAUGU [Xeonrave] | 16.1 | 26.9 | 20.7 | 20.8 | 23.7
AGCACGGUGAUGGUAGCCGGACGAUAAGUACGAGGACCGGUACGGCCGCCACUCGAAGUCCUACGACAUGAGGAUCACCCAUGUA [Same State Trp A GF11] | 30.4 | 47 | – | – | 73.6
UUUUUUAUUGGGUAUAGAAUAUUAACUGAAGGAGCGUGGUAUUACACAGGUAGGUCGCAGUUUUUACAUGAGGAUCACCCAUGUU [JR_SSArginiA_Sub010] | 36.1 | 51.5 | 39 | 38.5 | 60.1
UCUUUCUUUGUAGAUACCAGCGUGUUAUCUUUCUUUUGACAUGAGGAUCACCCAUGUAUAUGCCCUUGGCAGCUACAUAUUCUUU [#01 Same State - Theophylline B] | 18.1 | 23.6 | 18.2 | – | –
UGUAUGGACUGAAGGAGCGGAAAAUAAAUCUGAGGAUCACCCAGGUAAUAGGCGAAAGCCAUCCAGGUAGGUCGCAGUCCAUACU | 56.9 | 101 | 105 | 86.7 | 133
GGGCAAGAGGGAAGGAGCGUUAGCUGAGUCACAUGAGGAUCACCCAUGUCGCACAUAGUAUGACAGGUAGGUCGCCCUCUACCCU [SS-ArgB14] | 17.7 | 28.7 | 16.8 | 15.6 | 18.2
AUACAUGAGGAUCACCCAUGUGAUGGCCGGCGAGGACCGGUACGGCCGCCACUCGUGAUCCGUCCUGAAAGCAAAGCUCCCAGCA [Lalazare] | 25.1 | 244 | – | – | 178
UGUAUGUGAUUUGAUACCAGACCAGCUGGUGGUACCUGAGGAACACCCAGGUAGGUUUGGGUCCCUUGGCAGCAAAUCGCAUACU [SS Theo B #24 Ms7] | 36.2 | 34.4 | 33.3 | – | 21.4
